{
  "source": "paper PMC3916413",
  "biological_target": "T1, endogenous Asc of mouse macrophages (mouse (endogenous in BMDM)), Q9EPB4",
  "T1 chain": "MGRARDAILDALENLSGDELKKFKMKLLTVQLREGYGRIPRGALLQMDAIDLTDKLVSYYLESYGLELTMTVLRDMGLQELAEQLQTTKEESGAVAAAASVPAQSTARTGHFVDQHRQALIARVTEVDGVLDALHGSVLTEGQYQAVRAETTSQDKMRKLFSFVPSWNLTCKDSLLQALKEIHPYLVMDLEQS",
  "experiment": "cross-linking; insoluble fraction (pellet) of BMDM lysates cross-linked with 2 mM disuccinimidyl suberate for 30 min, immunoblot with anti-Asc; cells infected with WT Shigella or Salmonella, T3SS-deficient or fliA mutants, nucleofected with MxiI, or with siRNA to Naip2 or Naip5",
  "details": "remark: other sources report otherwise",
  "data": [
    {"binder": "endogenous Asc of mouse macrophages, Q9EPB4 1-193 (natural protein) MGRARDAILDALENLSGDELKKFKMKLLTVQLREGYGRIPRGALLQMDAIDLTDKLVSYYLESYGLELTMTVLRDMGLQELAEQLQTTKEESGAVAAAASVPAQSTARTGHFVDQHRQALIARVTEVDGVLDALHGSVLTEGQYQAVRAETTSQDKMRKLFSFVPSWNLTCKDSLLQALKEIHPYLVMDLEQS", "values": [
      {"measurement": "stoichiometry N", "result": 2}
    ]}
  ]
}
